Positions count from the first letter of the chain named.
B1: XGV042 (antibody, V domains shown)
VH: QITLKESGPTLVKPTQTLTLTCTFSGLSMTTSGVGVGWIRQPPGKALEWLALIYWDDDKRYSPFLKSRLTITKDTSKNQVVLTMTNMDPADTGTYFCAHHTIPSIFDHWGQGTLVTVSS
VL: QSALTQPASVSGSPGQSITISCTATSSDVGVYNYVSWYQQYPGKAPRLIIFEVSNRPSGVSSRFSGSKSGYTASLTISGLQTDDEADYYCSSYTTTSTVFGGGTKLTVL
B2: XGv293 (antibody, V domains shown)
VH: QVQLVQSGAEVKKPGASVKVSCKASGYTFTSYFLHWVRQAPGQGLEWLGIIDPSGGASYAQKFQGRVTMTSDTSTSTVYMDLGSLRSEDTAVYYCARAEGTSWLGWFDPWGQGSLVTVSS
VL: QSVLTQPPSASGTPGQRVTISCSGSSSNIGTNYVYWYQQLPGTAPKLLIYRNYQRPSGVPDRFSGSKSGTSASLAISGLRSEDEAEYYCAAWDNGLSGSGWVFGGGTKLTVL
B3: XGV050 (antibody, V domains shown)
VH: EVQLVESGGGLVQPGGSLRLSCAASGFTFSRYDMHWVRQAAGKGLEWVSGIGAPGDTYYAGSVKGRFTISRENAKTSLHLQMNNLRAGDTAVYYCTRGWFGENYMDVWGKGTTVTVSS
VL: EIVLTQSPATLSLSPGERATLSCRASQSVSNHLAWFQQKPGQSPRLLIYDASNRATGIPARFSGSGSGTDFTLTISSLEPEDFAIYYCHQRSNWPTFGQGTKVEIK
B4: XGv266 (antibody, V domains shown)
VH: QITLKESGPTLVRPTQTLTLTCTFSGLSLSAPAEGVGWIRQPPGKALEWLALIYWEGDQRYSPSLKSRLTITKDTSKKQVVLTMTNMDPVDTATYYCARHSVATIFDFWGQGTLVTVSS
VL: QSALTQPASVSGSPGQSITISCTGTSSDVGCCNYVSWYQHHPGKAPKLMIYEVTNRPSGISDRFSGSKSGNTASLTISGLQAEDEAAYYCSSYTTSTARVVFGGGTKLTVL
B5: XGv177 (antibody, V domains shown)
VH: EVQLVESGGGLIQPGGSLRLSCAASGVTVSSNYMTWVRQAPGKGLDWVSVIYSGGSTFYADSVKGRFTISRDNSKNTLYLQMNSLRVEDTAVYYCARDLVDYGLDVWGQGTTVTVSS
VL: DIQLTQSPSFLSASVGDRVTITCRASQGIASYLAWYQQKPGKPPKLLIYAASTLQSGVPTRFSGSGSGTEFTLTITSLQPEDFATYYCQLLSRHPPTFGGGTKVEI
B6: XGv285 (antibody, V domains shown)
VH: QVQLVQSGAEVKKPGASMKVSCKASGYTFISYYMHWVRQAPGQELEWMGIINPSGGSTSYAQKFQGRVTMTRDTSTSTVYMELRSLRSEDTAVYYCARAEGSSWLGWFDPWGQGTLVTVSS
VL: QSVLTQPPSASGTPGQRVTISCSGSSSNIGSNLVYWYQHLPGTAPKLLIYKNTQRPSGVPDRFSGSKSGTSASLAISGLRSDDEGDYYCAAWDDGLSGSGWVFGGGTKVT
B7: XGv286 (antibody, V domains shown)
VH: QVQLVQSGAEVKKPGASVKVSCKASGYTFSSYYIHWVRQAPGQGPEWMAIINPGDGGASYAQKFQGRVTLTRDTSTSTLYMELSSLRSEDTAVYYCARAEGSSWLGWFDPWGQGTLVTVSS
VL: B6 VL with L33Y, H39Q, K51R, T53N, K67R, D82E, G85A, V109L
B8: XGv290 (antibody, V domains shown)
VH: B6 VH with M18V, I30K, S31N, Y33H, E44G, S57G, T58S, R72G, R84S
VL: B6 VL with L33Y, H39Q, L47V, K51R, T53N, D82E, G85A, D86E, V102L, V109L
B9: XGV017 (antibody, V domains shown)
VH: EVQLVESGGGLIQPGGSLRLSCAASGVTVSSNYMNWVRQAPGKGLEWVSVIYPGGTRDYSDSVKGRFTISRDSSKNTLYLQMNSLRDEDTAFYYCARDLVVYGMDVWGQGTTVTVTS
VL: DIQLTQSPSSLSASVGDRVTITCRASQGISSYLAWYQQKPGKAPKLLIYAASTLQSGVPSRFSGSGSGTDFTLTISSLQPEDFAAYYCQLLNTYPLTFGGGTKVEIK
B10: XGv264 (antibody, V domains shown)
VH: QITLKESGPTLVKPTQTLTLTCAFSGFSLNTGGAGVGWIRQPPGKALEWLALIYWDGDKRYNPSLKSRLAIIMDTSKNRVVLTMTNMDPVDTATYYCAHHKIEYIFDYWGQGTLVAVSS
VL: QSALTQPASVSGSPGQSITVSCTGTSSDLGNFQYVSWYQHHPGKAPKLLIYEVSHRPSGVSNRFSGSKSGNTASLTISGLQAEDEADYYCCSYTTTTIPVAFGGGTRLTVL
B11: XGv261 (antibody, V domains shown)
VH: QLQLQESGPGLVRPSETLSLTCTVSGGSITDSGYYWGWIRQPPGKGLEWIGNIFYSGSTYYNPSLKSRVTISVDTSKNQFSLRLSSVTAADTAVYYCAREIGIIDYWGQGSLVIVSS
VL: DIQMTQSPSSLSASVGDRVTITCRASQGISNSLAWYQQKPGKAPKLLLYGASTLESGVPSRFSGSGSGTHFTLTISSLQPEDFATYFCQQYYSSPPRTFGGGTKVEI
B12: XGv074 (antibody, V domains shown)
VH: EVQLVESGGGLIQPGGSLRLSCAASGITVSANYMSWVRQAPGKGLEWVSVIYSGGSTYYADSVKGRFTISRDHSKNTLYLQMKNLRAEDTAVYYCARDRGSSGYLGDQPYEYWGQGTLVTVSS
VL: DIQMTQSPSSLSASVGDRVTITCQASQDINKYLNWYQQKPGKAPKLLIYGASNLETGVPSRFSGSGSGTDFTFTISSLRPEDIATYYCQQYDPLPVTFGGGTRVEIK
B13: XGV031 (antibody, V domains shown)
VH: QVQLVQSGAEVKKPGSSVKVSCKASGGTFSNYALSWVRQAPGQGLEWMGGIIPIFGTTNYAQNFQGRVTITADESTSTAYMELSSLRSEDTAVYYCARLDGYSFGHNRYYQDGMDDWGQGTTVTVSS
VL: DIQMTQSPSSLSASVGDRVTITCRASQAIRSDLGWYQQKPGKAPKCLIYAASTLQSGVPSRFSGSGSGTEFTLTISSLQPEDFATYYCLQQNIYPRTFGQGTKVEI
B14: XGv053 (antibody, V domains shown)
VH: B13 VH with N31S, S35T, N63K, S84T
VL: DIQMTQSPSSLSASVGDRVTITCRASQDIRNDLGWYQQKPGKAPKCLIYAASTLQSGVPSRFSGSGSGTEFTLTISSLQPEDFATYYCLQQNIYPRTFGQGTKVEIK
B15: XGv051 (antibody, V domains shown)
VH: B13 VH with N63K, N107D, Q119P
VL: B13 VL with S31N, Y87F
B16: XGv055 (antibody, V domains shown)
VH: B13 VH with N31S, N63K, T76S
VL: B14 VL with D28G
B17: XGV016 (antibody, V domains shown)
VH: QVQLVQSGTEVRKPGASVTVSCKASGYTFTTYHMHWVRRAPGQGLEWMGIIDPGTGGASYPQKFRGRVTLTRDTSTNTVYMELSSLRFQDTAIYYCARAEGSSWLGWFDPWGQGTLVTVSS
VL: QSVLTQPPSASGTPGQRVSISCSGSSSNIGTNYVYWYQQLPGTAPKLLIYKNNQRPSGVPDRFSGSKSGTSASLAISGLRSEDEADYFCASWDNGLSGSGWVFGGGTKLTV
B18: XGv288 (antibody, V domains shown)
VH: B7 VH with S30T, S31N, P45L, G54S, D55G, Q62H, L70M, S84I, E89D, V117I
VL: B17 VL with S19T, T31S, K51R, N53A, F88Y, S91A, N94D
B19: XGv287 (antibody, V domains shown)
VH: QVQLVQSGAEVKKPGASVKVSCKTSGYTFTTYYMHWVRQAPGQGLEWMGIINPSDGSTNYAQKFQDRVTLTKDTSTSTFYMELSSLTSEDTAKYYCARAEGSSWLGWFDPWGQGTLVTVSS
VL: QSVLTQPPSASGTPGQRVTISCSGSNSNIGNHFVYWYQQLPGKAPKLLIYRNNQRPSGVPDRFSGSKSGTSASLAISGLRSEDEADYYCASWNDGLSASGWVFGGGTKLTV
B20: XGv291 (antibody, V domains shown)
VH: QVQLVQSGAEVKKPGASVEISCKASGYSFTKYYVHWVRQAPGQGLEWMGIVNPNGGASYAQKFQGRVTMTSDTSTTTFYMEVSGLRSDDTAVYYCARAEGSSWLGWFDPWGQGTLVTVSS
VL: B19 VL with N26T, N31S, H32K, F33D, K43T, V59A, G65A, S91V, N93D, V102L
B21: XGV026 (antibody, V domains shown)
VH: EVQLVESGGGVIQPGGSLRLSCAASEIIVSSNYMNWVRQAPGKGLEWVSVIYPGGSSFYADSVKGRFTISRDNSKNTLYLQMNSLRVEDTAVYYCARDSPHRPGTIWGQGTLVVVSS
VL: DIQMTQSPSSLSASVGDRVTITCRASQDINNYLNWYQQKPGKAPKLLIYDAFTLEAGVPSRFSGARFGTDFTFTISSLQPEDIATYYCHQCDNLPCTFGGGTKVEIK

These binders were tested against SARS-CoV-2 wild-type spike receptor-binding domain (SARS-CoV-2, WT (MN908947), UniProt P0DTC2).

Q: Does B1 bind?
A: binds

Q: Does B2 bind?
A: binds

Q: Does B3 bind?
A: binds

Q: Does B4 bind?
A: binds

Q: Does B5 bind?
A: binds

Q: Does B6 bind?
A: binds

Q: Does B7 bind?
A: binds

Q: Does B8 bind?
A: binds

Q: Does B9 bind?
A: binds

Q: Does B10 bind?
A: binds

Q: Does B11 bind?
A: binds

Q: Does B12 bind?
A: binds

Q: Does B13 bind?
A: binds

Q: Does B14 bind?
A: binds

Q: Does B15 bind?
A: binds

Q: Does B16 bind?
A: binds

Q: Does B17 bind?
A: binds

Q: Does B18 bind?
A: binds

Q: Does B19 bind?
A: binds

Q: Does B20 bind?
A: binds

Q: Does B21 bind?
A: binds

These binders were tested against SARS-CoV-2 wild-type spike (S) protein (SARS-CoV-2, WT (MN908947), UniProt P0DTC2).

Q: Does B1 bind?
A: binds

Q: Does B2 bind?
A: binds

Q: Does B3 bind?
A: binds

Q: Does B4 bind?
A: binds

Q: Does B5 bind?
A: binds

Q: Does B6 bind?
A: binds

Q: Does B7 bind?
A: binds

Q: Does B8 bind?
A: binds

Q: Does B9 bind?
A: binds

Q: Does B10 bind?
A: binds

Q: Does B11 bind?
A: binds

Q: Does B12 bind?
A: binds

Q: Does B13 bind?
A: binds

Q: Does B14 bind?
A: binds

Q: Does B15 bind?
A: binds

Q: Does B16 bind?
A: binds

Q: Does B17 bind?
A: binds

Q: Does B18 bind?
A: binds

Q: Does B19 bind?
A: binds

Q: Does B20 bind?
A: binds

Q: Does B21 bind?
A: binds
